Here are results for four sequences from US20250221936A1, “ENGINEERED HEMICHANNELS, ENGINEERED VESICLES, AND USES THEREOF” (VIRGINIA TECH INTELLECTUAL PROPERTIES, INC., priority 2018, published 2025).

In experiment [1] the target is T1, PKC-ε phosphorylation of Cx43-CT substrate at Ser368 (Rattus norvegicus, UniProt P08050).
T1 construct: substrate (Cx43-CT: amino acids 255 to 382); GST (N); made in house; host or cells: E. coli BL21 (Cx43 CT); PKC-ε purchased (Life, 37717L)
Kind of experiment: PKC-ε Cx43 CT S368 phosphorylation assay. It is filed as biochemical. As to conditions: peptides at 20 μM. As for the experimental part:
PKC assay conditions were used to evaluate the PKC-ε phosphorylation of Cx43-CT substrate at Ser368 as we have described previously, with modifications 11. 400 ng/ml […] (Life, 37717L, Carlsbad, CA) was pre-diluted in enzyme dilution buffer (10 mM HEPES pH7.4, 0.01% CHAPS and 5 mM DTT) and assayed in 20 mM HEPES pH7.4, 10 mM/L MgCl2, 0.1 mM EGTA, 1× lipid mix (200 μg/ml phosphatidylserine (Avanti Polar Lipids 840032C),^20 μg/ml Diacylglycerol (Avanti Polar Lipids), 1 mM HEPES pH7.4, 0.03% CHAPS), 500 µM ATP (Sigma, A6419) and 14 μg/ml Cx43-CT substrate. Kinase assay buffer was supplemented with peptides to produce final concentrations of the reaction constituents, as indicated in figure legends. The mixture was incubated at 37° C. for 12 minutes and quenched by addition of LDS sample loading buffer (Bio Rad, 1610791). “XT sample buffer” is what was shown on the product label, whereas the component is similar as regular LDS buffer, containing about 5-10% lithium dodecyl sulphate. The reaction was Western blotted for pS368 Cx43 using the Phospho-Connexin43 (Ser368) antibody from Cell Signaling. Proteins were eluted off by stripping buffer (Millipore 2504) and re-probed for total Cx43 using the Sigma anti-rabbit antibody. Percent phosphorylation (% P) was quantified using Equation 1 and normalized with control group (PKC+, no peptide added).

The subject of experiment [2] is Cx43 S368 phosphorylation. Kind of experiment: Western blot of Cx43-pS368 in peptide-infused LV. The arrangement: species or system mouse. As to conditions: peptide infused 20 minutes; relative to vehicle control. As for the experimental part: Protein samples from all related experiments (PKC and EDC cross-linking assays and Westerns on heart lysates) were processed in lithium dodecyl sulfate sample loading buffer (Bio-Rad, 1610737 CA), heated at 95° C. for 5 minutes. Samples from PKC and cross-linking assays were loaded on 18% Tris-Glycine Stain-Free gels (Bio-Rad, 5678073 CA); samples from heart lysates were loaded on 10% Tris-Glycine Stain-Free el (Bio-Rad: 5678033 CA), resolved by SDS-PAGE, transferred to PVDF FL membrane on a Turbo Transfer System (Bio-Rad, 1704155 CA). alpha CT1 eluted from cross-linking reactions was detected on blots against biotin with HRP-NeutrAvidin (ThermoFisher, 31001, MA). Signals were detected by HR-based chemiluminescence (ThermoFisher, 34095, MA) and exposed to ECL Chemidoc (Bio-Rad, 1708280 CA) and digitized using Image Lab software (Bio-Rad, 1709692 CA). Detailed methods have also been previously described^11, 13, 14 Surface Plasmon Resonance
Male, 3-month-old, body weight 25±5 g C57BL/6 mice were used for this study and obtained from Charles River. Animals were randomly assigned to experimental groups and Left ventricular (LV) function was measured and myocardial ischemia-reperfusion injury (I/R) was induced as previously described^23. Briefly, 15 minutes after the injection of heparin at a dose of 200U/10 g body weight, the mouse was anesthetized by inhalation of isoflurane vapor and subjected to cervical dislocation upon the cessation of respiration. Thoracotomy was immediately performed and the heart excised. The heart was arrested in ice-cold Krebs-Henseleit (KH) buffer (in mM: 25 NaHCO3, 0.5 EDTA, 5.3 KCl, 1.2 MgSO4, 0.5 pyruvate, 118 NaCl, 10 glucose, 2.5 CaCl2). The aorta was isolated and cannulated in a Langendorff perfusion system. The heart was then perfused at a constant pressure of 75 mmHg with KH buffer, which was continually bubbled with 5% CO2/95% O2 at 37° C. Effluent from the Thebesian veins was drained by a thin polyethylene tube (PE-10) pierced through the apex of the LV. […] After a 30-minute stabilization period, a balloon volume (BV) generating an LV end-diastolic-pressure (EDP) of 0 mmHg, was determined for the heart. The BV was then increased stepwise up through 1, 2, 5, 8, 10, 12, 15, 18, 20, 25, 30 μl increments of 1-5 μl and contractile performance were recorded for 10 seconds at each step. […] Data was recorded and analyzed using PowerLab 4/35 (ADInstruments, PL3504, CO) and LabChart V7 (ADInstruments, CO). […] Baseline function (determined by EDP at about 8-10 mmHg) was recorded for 5 minutes. […] BV was retaken through the stepwise sequence of 1-5 μl increments between 1 and 30 μl, with contractile performance again being recorded for 10 seconds at each step. Cardiac LV function was recorded throughout the procedure. […]
(In western blotting, separated proteins are transferred to a membrane and probed.)

T1 sequence (P08050 255-382): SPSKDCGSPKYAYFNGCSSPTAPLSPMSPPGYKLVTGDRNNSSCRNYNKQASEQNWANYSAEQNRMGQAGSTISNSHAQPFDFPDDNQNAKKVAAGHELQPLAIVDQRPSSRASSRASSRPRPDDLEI

Take RQPKIWFPNRRKPWKKRPRPDDLAI [M3 DDLAI]: the “Cx43 S368 phosphorylation” value in experiment [1] is given as “neither M1 AALAI (SEQ ID NO: 134), M2 AALEI (SEQ ID NO: 135) nor M3 DDLAI (SEQ ID NO: 136) increased Cx43 S368 phosphorylation”. In experiment [2], the “Cx43 pS368 in LV samples” value was “no propensity to upregulate S368 phosphorylation”.
Regarding RQPKIWFPNRRKPWKKRPRPDDLEI [alpha CT1], the “ability to induce S368 phosphorylation” value in experiment [1] (greater than PKC ε+plus control, M1 AALAI or M4) is on record as “about 3 fold”. Also, in experiment [2], the “Cx43 pS368 in LV samples” value was “significant increases in phosphorylation”.
With RQPKIWFPNRRKPWKKRPRPDDLE [alpha CT1-I], the “Cx43 S368 phosphorylation” value in experiment [1] was “significant increase in PKC ε-mediated phosphorylation of Cx43 CT”. Also, the “Cx43 pS368 in LV samples” value in experiment [2] is reported as “significant increases in phosphorylation”.
“RQPKIWFPNRRKPWKK RPRPAALAI (RQPKIWFPNRRKPWKKRPRPAALAI) [M1 AALAI]”: the “Cx43 S368 phosphorylation” value in experiment [1] is “neither M1 AALAI (SEQ ID NO: 134), M2 AALEI (SEQ ID NO: 135) nor M3 DDLAI (SEQ ID NO: 136) increased Cx43 S368 phosphorylation”. In addition, in experiment [2], the “Cx43 pS368 in LV samples” value was “no propensity to upregulate S368 phosphorylation”.
